Laboratory results reported in patent US20250018038A1 (UNIVERSITY OF CHICAGO, published 2025).

B1: SUR-N-36 Fab (Fab, V domains shown)
VH: EVQLVESGGGLVQPGGSLRLSCAASGFNVSYSSIHWVRQAPGKGLEWVASIYPYYGYTSYADSVKGRFTISADTSKNTAYLQMNSLRAEDTAVYYCAREEYSTVQYWYYYWYPGMDYWGQGTLVTVSS
VL: DIQMTQSPSSLSASVGDRVTITCRASQSVSSAVAWYQQKPGKAPKLLIYSASSLYSGVPSRFSGSRSGTDFTLTISSLQPEDFATYYCQQYMYSPITFGQGTKVEIKR
B2: SUR-FL-29 Fab (Fab, V domains shown)
VH: EVQLVESGGGLVQPGGSLRLSCAASGFNVSYYSIHWVRQAPGKGLEWVASIYPYYGSTSYADSVKGRFTISADTSKNTAYLQMNSLRAEDTAVYYCARWQFYGYYHGLYFTDLGIDYWGQGTLVTVSS
VL: DIQMTQSPSSLSASVGDRVTITCRASQSVSSAVAWYQQKPGKAPKLLIYSASSLYSGVPSRFSGSRSGTDFTLTISSLQPEDFATYYCQQSGGFPITFGQGTKVEIKR
B3: SUR-N-07 (Fab, V domains shown)
VH: EVQLVESGGGLVQPGGSLRLSCAASGFNFSSSSIHWVRQAPGKGLEWVASISPYSGYTYYADSVKGRFTISADTSKNTAYLQMNSLRAEDTAVYYCARWYWAYPYWWYAMDYWGQGTLVTVSS
VL: DIQMTQSPSSLSASVGDRVTITCRASQSVSSAVAWYQQKPGKAPKLLIYSASSLYSGVPSRFSGSRSGTDFTLTISSLQPEDFATYYCQQSWGPPVTFGQGTKVEIKR
notes: also called SUR-N-07 Fab
B4: SUR-FL-52 (Fab, V domains shown)
VH: EVQLVESGGGLVQPGGSLRLSCAASGFNFSSSSIHWVRQAPGKGLEWVASIYPYSGSTYYADSVKGRFTISADTSKNTAYLQMNSLRAEDTAVYYCARWDFGYYYWYSAIDYWGQGTLVTVSS
VL: DIQMTQSPSSLSASVGDRVTITCRASQSVSSAVAWYQQKPGKAPKLLIYSASSLYSGVPSRFSGSRSGTDFTLTISSLQPEDFATYYCQQYWYTLITFGQGTKVEIKR
notes: also called SUR-FL-52 Fab
B5: SUR-N-40 Fab (Fab, V domains shown)
VH: EVQLVESGGGLVQPGGSLRLSCAASGFNFSSSSIHWVRQAPGKGLEWVAYIYPSYGYTSYADSVKGRFTISADTSKNTAYLQMNSLRAEDTAVYYCARSLYSKMWYYGSYYFYQVGLDYWGQGTLVTVSS
VL: DIQMTQSPSSLSASVGDRVTITCRASQSVSSAVAWYQQKPGKAPKLLIYSASSLYSGVPSRFSGSRSGTDFTLTISSLQPEDFATYYCQQGYKYLVTFGQGTKVEIKR
B6: SUR-FL-25 (Fab, V domains shown)
VH: EVQLVESGGGLVQPGGSLRLSCAASGFNVYSSSIHWVRQAPGKGLEWVASIYPYYSYTSYADSVKGRFTISADTSKNTAYLQMNSLRAEDTAVYYCARWKKSRSGGMWGMDYWGQGTLVTVSS
VL: DIQMTQSPSSLSASVGDRVTITCRASQSVSSAVAWYQQKPGKAPKLLIYSASSLYSGVPSRFSGSRSGTDFTLTISSLQPEDFATYYCQQYSSFPITFGQGTKVEIKR
notes: also called SUR-FL-25 Fab
B7: SUR-N-37 (Fab, V domains shown)
VH: EVQLVESGGGLVQPGGSLRLSCAASGFNVSYSSIHWVRQAPGKGLEWVASISSYYGSTSYADSVKGRFTISADTSKNTAYLQMNSLRAEDTAVYYCARSTYYSWYPYYYAMWHQHGMDYWGQGTLVTVSS
VL: DIQMTQSPSSLSASVGDRVTITCRASQSVSSAVAWYQQKPGKAPKLLIYSASSLYSGVPSRFSGSRSGTDFTLTISSLQPEDFATYYCQQSPMYSLITFGQGTKVEIKR
notes: also called SUR-N-37 Fab
B8: SUR-FL-22 (Fab, V domains shown)
VH: EVQLVESGGGLVQPGGSLRLSCAASGFNFYSSYIHWVRQAPGKGLEWVASIYSYSSSTSYADSVKGRFTISADTSKNTAYLQMNSLRAEDTAVYYCARAGWYWYYGIQFAFDYWGQGTLVTVSS
VL: DIQMTQSPSSLSASVGDRVTITCRASQSVSSAVAWYQQKPGKAPKLLIYSASSLYSGVPSRFSGSRSGTDFTLTISSLQPEDFATYYCQQQRYGSLITFGQGTKVEIKR
notes: also called SUR-FL-22 Fab
B9: SUR-N-45 Fab (Fab, V domains shown)
VH: EVQLVESGGGLVQPGGSLRLSCAASGFNLSSSSIHWVRQAPGKGLEWVASISSYSGYTYYADSVKGRFTISADTSKNTAYLQMNSLRAEDTAVYYCARPHWNSSYFSGWAMDYWGQGTLVTVSS
VL: DIQMTQSPSSLSASVGDRVTITCRASQSVSSAVAWYQQKPGKAPKLLIYSASSLYSGVPSRFSGSRSGTDFTLTISSLQPEDFATYYCQQWSSKSPITFGQGTKVEIKR
B10: SUR-FL-27 (Fab, V domains shown)
VH: EVQLVESGGGLVQPGGSLRLSCAASGFNVYSSYIHWVRQAPGKGLEWVASIYPSSGYTYYADSVKGRFTISADTSKNTAYLQMNSLRAEDTAVYYCARMSYYSWYYHSVYMYGLDYWGQGTLVTVSS
VL: DIQMTQSPSSLSASVGDRVTITCRASQSVSSAVAWYQQKPGKAPKLLIYSASSLYSGVPSRFSGSRSGTDFTLTISSLQPEDFATYYCQQASSDHSLITFGQGTKVEIKR
notes: also called SUR-FL-27 Fab

How the values were obtained:
[1] = molecular target: T1, Survivin (purified recombinant Survivin protein) (human, UniProt O15392 1-140, limits assumed, biotinylated on the Avi-tag by BirA (antigens for selection and ELISA)); test: multipoint protein ELISA: 50 nM immobilised target, 3-fold serial dilutions of purified Fab, protein L-HRP, sigmoidal fit
T1 construct: also called Baculoviral IAP repeat-containing protein 5; BIRC5
T1 sequence (O15392 1-140 limits assumed): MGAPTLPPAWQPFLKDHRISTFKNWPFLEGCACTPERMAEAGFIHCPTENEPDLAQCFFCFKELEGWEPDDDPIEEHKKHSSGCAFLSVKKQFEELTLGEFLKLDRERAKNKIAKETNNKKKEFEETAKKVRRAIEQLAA
Method: Protein based multipoint ELISA was performed to estimate the affinity of the generated unique Fabs to their cognate antigens. A fixed concentration of the immobilized target (50 nM) on ELISA plate was incubated with 3-fold serial dilutions of the purified Fabs starting from […] for 15 min. The plates were washed and the bound antigen-Fab complexes were incubated with H1RP-conjugated protein L (1:5000 dilution in PBST). As with phage ELISA, the plates were again washed, developed with TMB substrate and quenched with 1.0 M HCl, and absorbance (A450) was determined. To determine the affinity, the data were fitted in a non-linear sigmoidal function with variable slope in GraphPad PRISM and EC50 value was calculated (FIG. 2).

[2] = molecular target: T2, Survivin of murine tumor cells (CT-26, MC-38) (mouse, UniProt O70201); test: flow cytometry of live murine colon tumor cells, 200 nM Fab, anti-human F(ab')2-A647 secondary
T2 construct: also called murine survivin
T2 sequence (O70201 whole entry): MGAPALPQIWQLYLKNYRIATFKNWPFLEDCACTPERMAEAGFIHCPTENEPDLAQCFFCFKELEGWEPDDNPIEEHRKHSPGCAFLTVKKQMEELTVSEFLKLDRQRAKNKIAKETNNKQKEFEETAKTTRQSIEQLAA
Method: (§1) Human or murine tumor cells were trypsinized, washed and resuspended in Flow buffer (1×PBS supplemented with 2% FBS) and added to a 96-well plate (#3799, Costar). 200 nM primary CPC Fab was mixed with 0.5M cells and incubated at 37 C for 20 min. […] Samples were analyzed by flow cytometry using CytoFLEX (Beckman Coulter) and mean fluorescence intensity (MFI) data was extracted using the FlowJo software (FIG. 5A-E, FIG. 6). Human peripheral blood mononuclear cells (PBMCs) derived from a single patient were used as a source of healthy human cells. PBMCs were counted, split and spun down 400×g 5 min. Cells were resuspended in Flow buffer (1×PBS supplemented with 2% FBS) and pre-incubated with TruStain FcX (1:20, Biolegend 422302) for 10 min at 37 C, followed by 200 nM primary Fab incubation at 37 for 20 min. […] Mean fluorescence intensity (MFI) data was extracted using the FlowJo software (FIG. 5F).

[3] = molecular target: T1, Survivin (purified recombinant Survivin …); test: SPR: target immobilised on NTA chip by His-tag, 2-fold serial dilutions of Fab, 1:1 Langmuir fit
Method: The targets were immobilized onto a nitrilotriacetic acid (NTA) sensor chip via His-tag. 2-fold serial dilutions of the Fab were injected following ligand immobilization on the sensor chip. For each kinetic assay at least five dilutions of the Fab were tested. The data were fitted using 1:1 Langmuir Model to obtain the on-rate, off-rate and the affinity (KD) of the Fab-target interaction. (FIG. 4).

[4] = molecular target: T3, cell surface survivin on cancer cells (human, UniProt O15392 1-142); test: flow cytometry of live cells, 200 nM Fab, anti-human F(ab')2-A647 secondary
T3 construct: whole, on cells
T3 sequence (O15392 whole entry): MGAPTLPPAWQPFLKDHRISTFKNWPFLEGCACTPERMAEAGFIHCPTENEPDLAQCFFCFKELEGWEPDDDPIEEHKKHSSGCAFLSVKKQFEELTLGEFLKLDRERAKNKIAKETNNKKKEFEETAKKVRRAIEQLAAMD
Method: as §1

Bor-N = molecular target: T4, Bor-N (Biotinylated Avi tag, held on neutravidin; not in the letters); test: single point protein ELISA, 50 nM immobilised target
T4 construct: also called Bor N: 20-88; Borealin N-terminal domain; not shown: Avi tag, and any purification tag or linker
T4 chain: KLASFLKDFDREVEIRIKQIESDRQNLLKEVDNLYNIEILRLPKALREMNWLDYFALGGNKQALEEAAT
Method: (§2) To rapidly reconfirm the binding and specificity of the obtained Fabs after reformatting into the expression vectors single-point Fab ELISA was performed (FIG. 2-3). Briefly, 50 nM Avi-tagged targets were immobilized on the prepared NAV-coated and blocked with 0.5% BSA in PBS 96-well ELISA plates. The target coated plates were washed with appropriate buffer (TBST or PBST) and were incubated with 200 nM Fab for 20 minutes and then washed. The washed plates were incubated with protein L conjugated with HRP (1:5000 diluted in TBST) for 30 minutes. Plates were washed and the reaction was developed using the TMB chromogenic substrate (Thermofisher) and subsequently quenched with 1M HCl. Absorbance was read at 450 nm on Epoch plate reader.

Bor-C = molecular target: T5, Bor-C (Biotinylated Avi tag, held on neutravidin; not in the letters); test: as above
T5 construct: also called Bor C: 207-280; Borealin C-terminal domain; not shown: Avi tag, and any purification tag or linker
T5 chain: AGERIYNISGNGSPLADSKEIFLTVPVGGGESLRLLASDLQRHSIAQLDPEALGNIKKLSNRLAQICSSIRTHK
Method: as §2

Row | Binder | EC50 [1] | binding result [2] | binding result [4] | also measured
1 | B1 | 2 nM | binds |  | Kd [3]: 4.2 nM
2 | B2 |  | binds | binds | 
3 | B3 |  |  | binds | 
4 | B4 |  |  | binds | 
5 | B5 | < 1 nM | binds |  | Kd [3]: 2.1 nM
6 | B6 | 10 nM |  |  | 
7 | B7 | 1 nM |  |  | binding result (Bor-N): no binding (tested: 200 nM)
8 | B8 | 3 nM |  |  | 
9 | B9 |  |  | binds | binding result (Bor-C): no binding (tested: 200 nM); binding result (Bor-N): no binding (tested: 200 nM)
10 | B10 |  |  | binds | 
